Data on 5 molecules can be found in US20240383985A1 (published 2024).

For assay [1], the target named is T1, CD38 naturally expressed on Daudi cells (human, UniProt P28907 1-300). Kind of assay: FACS; FIG. 23. In general terms: A flow cytometer gives signals particle by particle.
Assay [2] deals with T1, CD38 naturally expressed on Daudi cells. Nature of the assay: FACS; FIG. 24.
For another assay, the target named is T2, CS1-Fc (UniProt Q9NQ25 23-226).
T2 chain: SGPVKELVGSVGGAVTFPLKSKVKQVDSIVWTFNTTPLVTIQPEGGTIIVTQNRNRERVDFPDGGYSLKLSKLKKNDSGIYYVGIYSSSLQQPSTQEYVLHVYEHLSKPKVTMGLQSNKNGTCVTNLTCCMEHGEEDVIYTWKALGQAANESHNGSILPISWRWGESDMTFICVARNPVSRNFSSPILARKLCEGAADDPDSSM
Kind of assay: ELISA.

B1: QP42764325 (antibody)
chain 1: DIQMTQSPSSLSASVGDRVTITCKASQDVGIAVAWYQQKPGKVPKLLIYWASTRHTGVPDRFSGSGSGTDFTLTISSLQPEDVATYYCQQYSSYPYTFGQGTKVEIKRTVAAPSVFIFPPSDEQLKSGTASVVCLLNNFYPREAKVQWKVDNALQSGNSQESVTEQDSKDSTYSLSSTLTLSKADYEKHKVYACEVTHQGLSSPVTKSFNRGEC
chain 2: EVQLVESGGGLVQPGGSLRLSCAASGFDFSRYWMSWVRQAPGKGLEWIGEINPDSSTINYAPSLKDKFIISRDNAKNSLYLQMNSLRAEDTAVYYCARPDGNYWYFDVWGQGTLVTVSSASTKGPSVFPLAPSSKSTSGGTAALGCLVKDYFPEPVTVSWNSGALTSGVHTFPAVLQSSGLYSLSSVVTVPSSSLGTQTYICNVNHKPSNTKVDKKVEPKSCDKTHTCPPCPAPEAAGGPSVFLFPPKPKDTLMISRTPEVTCVVVDVSHEDPEVKFNWYVDGVEVHNAKTKPREEQYNSTYRVVSVLTVLHQDWLNGKEYKCKVSNKALPAPIEKTISKAKGQPREPQVYTLPPSREEMTKNQVSLSCAVKGFYPSDIAVEWESNGQPENNYKTTPPVLDSDGSFFLVSKLTVDKSRWQQGNVFSCSVMHEALHNRYTQKSLSLSPGK
chain 3: not shown
chain 4: not shown
The EC50 is the concentration at which the effect is half-maximal. With B1, the EC50 in assay [1] is 10.2 nM; in assay [2], 8.56 nM.

B2: CS1/CD16A/IL-15 trifunctional fusion protein QP7434262 (FC wildtype) (bispecific antibody)
chain 1: not shown
chain 2: not shown
light: DIQMTQSPSSLSASVGDRVTITCKASQDVGIAVAWYQQKPGKVPKLLIYWASTRHTGVPDRFSGSGSGTDFTLTISSLQPEDVATYYCQQYSSYPYTFGQGTKVEIKRTVAAPSVFIFPPSDEQLKSGTASVVCLLNNFYPREAKVQWKVDNALQSGNSQESVTEQDSKDSTYSLSSTLTLSKADYEKHKVYACEVTHQGLSSPVTKSFNRGEC
heavy: EVQLVESGGGLVQPGGSLRLSCAASGFDFSRYWMSWVRQAPGKGLEWIGEINPDSSTINYAPSLKDKFIISRDNAKNSLYLQMNSLRAEDTAVYYCARPDGNYWYFDVWGQGTLVTVSSASTKGPSVFPLAPSSKSTSGGTAALGCLVKDYFPEPVTVSWNSGALTSGVHTFPAVLQSSGLYSLSSVVTVPSSSLGTQTYICNVNHKPSNTKVDKKVEPKSCDKTHTCPPCPAPELLGGPSVFLFPPKPKDTLMISRTPEVTCVVVDVSHEDPEVKFNWYVDGVEVHNAKTKPREEQYNSTYRVVSVLTVLHQDWLNGKEYKCKVSNKALPAPIEKTISKAKGQPREPQVYTLPPSREEMTKNQVSLSCAVKGFYPSDIAVEWESNGQPENNYKTTPPVLDSDGSFFLVSKLTVDKSRWQQGNVFSCSVMHEALHNRYTQKSLSLSPGKGGSHHHHHH
Consider B2, for which the EC50 with CS1-Fc is ~0.839 µg/mL.

B3: QP42764279 (antibody)
chain 1: DIQMTQSPSSLSASVGDRVTITCKASQDVGIAVAWYQQKPGKVPKLLIYWASTRHTGVPDRFSGSGSGTDFTLTISSLQPEDVATYYCQQYSSYPYTFGQGTKVEIKRTVAAPSVFIFPPSDEQLKSGTASVVCLLNNFYPREAKVQWKVDNALQSGNSQESVTEQDSKDSTYSLSSTLTLSKADYEKHKVYACEVTHQGLSSPVTKSFNRGEC
chain 2: EVQLVESGGGLVQPGGSLRLSCAASGFDFSRYWMSWVRQAPGKGLEWIGEINPDSSTINYAPSLKDKFIISRDNAKNSLYLQMNSLRAEDTAVYYCARPDGNYWYFDVWGQGTLVTVSSASTKGPSVFPLAPSSKSTSGGTAALGCLVKDYFPEPVTVSWNSGALTSGVHTFPAVLQSSGLYSLSSVVTVPSSSLGTQTYICNVNHKPSNTKVDKKVEPKSCDKTHTCPPCPAPEAAGGPSVFLFPPKPKDTLMISRTPEVTCVVVDVSHEDPEVKFNWYVDGVEVHNAKTKPREEQYNSTYRVVSVLTVLHQDWLNGKEYKCKVSNKALPAPIEKTISKAKGQPREPQVYTLPPSREEMTKNQVSLSCAVKGFYPSDIAVEWESNGQPENNYKTTPPVLDSDGSFFLVSKLTVDKSRWQQGNVFSCSVMHEALHNRYTQKSLSLSPGK
chain 3: not shown
chain 4: not shown
With B3, the EC50 in assay [1] was found to be 8.99 nM.

B4: CS1/CD16A/IL-15 trifunctional fusion protein QP43394342 (FC with L234A/L235A mutation for eliminating function) (bispecific antibody)
chain 1: not shown
chain 2: not shown
light: DIQMTQSPSSLSASVGDRVTITCKASQDVGIAVAWYQQKPGKVPKLLIYWASTRHTGVPDRFSGSGSGTDFTLTISSLQPEDVATYYCQQYSSYPYTFGQGTKVEIKRTVAAPSVFIFPPSDEQLKSGTASVVCLLNNFYPREAKVQWKVDNALQSGNSQESVTEQDSKDSTYSLSSTLTLSKADYEKHKVYACEVTHQGLSSPVTKSFNRGEC
heavy: EVQLVESGGGLVQPGGSLRLSCAASGFDFSRYWMSWVRQAPGKGLEWIGEINPDSSTINYAPSLKDKFIISRDNAKNSLYLQMNSLRAEDTAVYYCARPDGNYWYFDVWGQGTLVTVSSASTKGPSVFPLAPSSKSTSGGTAALGCLVKDYFPEPVTVSWNSGALTSGVHTFPAVLQSSGLYSLSSVVTVPSSSLGTQTYICNVNHKPSNTKVDKKVEPKSCDKTHTCPPCPAPEAAGGPSVFLFPPKPKDTLMISRTPEVTCVVVDVSHEDPEVKFNWYVDGVEVHNAKTKPREEQYNSTYRVVSVLTVLHQDWLNGKEYKCKVSNKALPAPIEKTISKAKGQPREPQVYTLPPSREEMTKNQVSLSCAVKGFYPSDIAVEWESNGQPENNYKTTPPVLDSDGSFFLVSKLTVDKSRWQQGNVFSCSVMHEALHNRYTQKSLSLSPGKGGSHHHHHH
As to B4, the EC50 with CS1-Fc came out at 1.77 µg/mL.

B5: QP344944564368 (antibody)
chain 1: not shown
chain 2: MEFGLSWLFLVAILKGVQCEVQLVESGGGLVQPGGSLRLSCAASGFDFSRYWMSWVRQAPGKGLEWIGEINPDSSTINYAPSLKDKFIISRDNAKNSLYLQMNSLRAEDTAVYYCARPDGNYWYFDVWGQGTLVTVSSASTKGPSVFPLAPSSKSTSGGTAALGCLVKDYFPEPVTVSWNSGALTSGVHTFPAVLQSSGLYSLSSVVTVPSSSLGTQTYICNVNHKPSNTKVDKKVEPKSCDKTHTCPPCPAPEAAGGPSVFLFPPKPKDTLMISRTPEVTCVVVDVSHEDPEVKFNWYVDGVEVHNAKTKPREEQYNSTYRVVSVLTVLHQDWLNGKEYKCKVSNKALPAPIEKTISKAKGQPREPQVYTLPPSREEMTKNQVSLSCAVKGFYPSDIAVEWESNGQPENNYKTTPPVLDSDGSFFLVSKLTVDKSRWQQGNVFSCSVMHEALHNRYTQKSLSLSPGKGGSHHHHHH
chain 3: MDMRVPAQLLGLLLLWFPGSRCDIQMTQSPSSLSASVGDRVTITCKASQDVGIAVAWYQQKPGKVPKLLIYWASTRHTGVPDRFSGSGSGTDFTLTISSLQPEDVATYYCQQYSSYPYTFGQGTKVEIKRTVAAPSVFIFPPSDEQLKSGTASVVCLLNNFYPREAKVQWKVDNALQSGNSQESVTEQDSKDSTYSLSSTLTLSKADYEKHKVYACEVTHQGLSSPVTKSFNRGEC
As to B5, the response in the assay with CS1-Fc was half-maximal at 5.24 µg/mL (EC50).
